Patent US20120316071A1 (published 2012)
Blank lines part the entries; values can stand above or below the binder they belong to.

Key:
[1] = target: T1, rHuman HGF R/c-MET/Fc Chimera, CF (R&D Systems Cat#358-MT/CF) (human, UniProt P08581 25-932); assay: ECL multispot (MSD) assay, antigen spotted on plate, 20 nM Fab;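 also: purified Fab bound to plate-spotted antigen for 1 h at 20 °C, labelled detection antibody added, ratio of antigen ECL signal to same-well blank, ratio ≥4 counted as binder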
T1 construct: Bought recombinant protein; also called HGF R/Fc; hepatocyte growth factor receptor; Fc part of the bought chimera not given

[2] = target: T2, Recombinant Human DLL4 (R&D Systems Cat#1506-D4/CF) (human, UniProt Q9NR61 27-524); assay: as above
T2 construct: Bought recombinant protein; also called delta-like protein 4; rHuman DLL4

[3] = target: T3, rHuman Erythropoietin R/Fc Chimera, CF (R&D Systems Cat#963-ER) (human, UniProt P19235 25-250); assay: as above
T3 construct: Bought recombinant protein; also called EPO R; EPO R/Fc; Fc part of the bought chimera not given
T3 sequence (looked up): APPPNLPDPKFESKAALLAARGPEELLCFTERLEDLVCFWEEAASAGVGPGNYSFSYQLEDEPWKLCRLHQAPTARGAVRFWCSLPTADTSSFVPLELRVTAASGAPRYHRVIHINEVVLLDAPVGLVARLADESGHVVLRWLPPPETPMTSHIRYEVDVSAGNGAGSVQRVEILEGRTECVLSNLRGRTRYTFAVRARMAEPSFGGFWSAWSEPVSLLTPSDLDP

[4] = target: T4, rHuman ErbB2/Fc Chimera, CF (R&D Systems Cat#1129-ER) (human, UniProt P04626 23-652); assay: as above
T4 construct: Bought recombinant protein; also called human epidermal growth factor 2 receptor; Fc part of the bought chimera not given

[5] = target: T5, rHuman P-Cadherin/Fc Chimera, CF (R&D Systems Cat#861-PC) (human, UniProt P22223 108-654); assay: as above
T5 construct: Bought recombinant protein; Fc part of the bought chimera not given

[6] = target: T6, rHuman IGF-1 sR, CF (R&D Systems Cat#391-GR) (human, UniProt P08069 31-932); assay: as above
T6 construct: Bought soluble receptor; also called insulin-like growth factor-1 soluble receptor

[7] = target: T7, rHuman Notch-1/Fc Chimera, CF (R&D Systems Cat#3647-TK) (human, UniProt P46531 19-526); assay: as above
T7 construct: Bought recombinant protein; Fc part of the bought chimera not given

[8] = target: T8, rHuman CD44/Fc Chimera, CF (R&D Systems Cat#3660-CD) (human, UniProt P16070 21-220); assay: as above
T8 construct: Bought recombinant protein; Fc part of the bought chimera not given

[9] = target: T9, rHuman EGF R/Fc Chimera, CF (R&D Systems Cat#344-ER) (human, UniProt P00533 25-645); assay: as above
T9 construct: Bought recombinant protein; also called epidermal growth factor receptor; Fc part of the bought chimera not given

[10] = target: T10, rHuman IGF-1 sR, CF (R&D Systems Cat#391-GR) (human, UniProt P08069 31-932); assay: Multispot ECL (MSD), antigen spotted on plate, Fab 0.00391 uM; blank spot 576
T10 construct: Bought recombinant soluble receptor; also called insulin-like growth factor-1 soluble receptor

[11] = target: T11, rHuman EGF R/Fc Chimera, CF (R&D Systems Cat#344-ER) (human, UniProt P00533 25-645); assay: as above
T11 construct: Bought recombinant protein; also called epidermal growth factor receptor (EGF R); Fc part of the bought chimera not given

[12] = target: T12, rHuman Erythropoietin R/Fc Chimera, CF (R&D Systems Cat#963-ER) (human, UniProt P19235 25-250); assay: as above
T12 construct: Bought recombinant protein; also called EPO R/Fc; Epo R; Fc part of the bought chimera not given
T12 sequence (looked up): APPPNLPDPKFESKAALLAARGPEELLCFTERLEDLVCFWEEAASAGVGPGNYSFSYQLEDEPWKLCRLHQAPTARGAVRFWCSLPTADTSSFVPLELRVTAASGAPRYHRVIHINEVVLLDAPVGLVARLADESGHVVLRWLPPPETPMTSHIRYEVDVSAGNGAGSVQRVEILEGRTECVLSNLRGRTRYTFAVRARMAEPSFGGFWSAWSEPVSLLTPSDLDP

[13] = target: T10, rHuman IGF-1 sR, CF (R&D Systems …); assay: Multispot ECL (MSD), antigen spotted on plate, Fab 0.01563 uM; blank spot 906
[14] = target: T11, rHuman EGF R/Fc Chimera, CF (R&D …); assay: as above
[15] = target: T12, rHuman Erythropoietin R/Fc Chimera, CF …; assay: as above
[16] = target: T10, rHuman IGF-1 sR, CF (R&D Systems …); assay: Multispot ECL (MSD), antigen spotted on plate, Fab 0.25 uM; blank spot 6344
[17] = target: T11, rHuman EGF R/Fc Chimera, CF (R&D …); assay: as above
[18] = target: T12, rHuman Erythropoietin R/Fc Chimera, CF …; assay: as above
[19] = target: T10, rHuman IGF-1 sR, CF (R&D Systems …); assay: Multispot ECL (MSD), antigen spotted on plate, Fab 0.0625 uM; blank spot 1738
[20] = target: T11, rHuman EGF R/Fc Chimera, CF (R&D …); assay: as above
[21] = target: T12, rHuman Erythropoietin R/Fc Chimera, CF …; assay: as above

T1 sequence (P08581 25-932, change not shown): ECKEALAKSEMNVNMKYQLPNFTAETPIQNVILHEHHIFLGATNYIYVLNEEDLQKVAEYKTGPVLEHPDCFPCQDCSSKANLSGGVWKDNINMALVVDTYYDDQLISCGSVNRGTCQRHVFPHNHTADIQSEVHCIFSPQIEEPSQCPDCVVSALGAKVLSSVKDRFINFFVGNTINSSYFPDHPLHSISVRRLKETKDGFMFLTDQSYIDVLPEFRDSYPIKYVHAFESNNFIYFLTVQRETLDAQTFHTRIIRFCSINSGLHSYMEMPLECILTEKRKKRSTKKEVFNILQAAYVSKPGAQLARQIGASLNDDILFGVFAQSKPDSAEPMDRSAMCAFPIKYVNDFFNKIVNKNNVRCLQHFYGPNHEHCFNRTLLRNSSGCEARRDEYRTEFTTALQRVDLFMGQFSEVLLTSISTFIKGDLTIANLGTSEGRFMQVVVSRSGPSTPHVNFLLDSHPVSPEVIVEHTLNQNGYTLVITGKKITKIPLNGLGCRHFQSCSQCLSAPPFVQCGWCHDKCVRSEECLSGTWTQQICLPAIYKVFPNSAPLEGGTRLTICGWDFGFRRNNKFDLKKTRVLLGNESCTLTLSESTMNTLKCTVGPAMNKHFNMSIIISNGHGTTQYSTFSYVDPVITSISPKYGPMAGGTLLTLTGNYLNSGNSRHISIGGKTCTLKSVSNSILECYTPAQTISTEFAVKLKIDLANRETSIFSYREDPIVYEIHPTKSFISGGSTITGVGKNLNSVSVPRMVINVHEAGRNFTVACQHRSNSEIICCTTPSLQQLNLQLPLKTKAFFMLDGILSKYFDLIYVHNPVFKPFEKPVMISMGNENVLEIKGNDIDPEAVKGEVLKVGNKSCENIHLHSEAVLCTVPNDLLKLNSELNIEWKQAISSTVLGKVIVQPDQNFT

ECL signal/blank ratio (read-out not given) [1]: 3.3 | ECL signal/blank ratio (read-out not given) [2]: 2.8 | ECL signal/blank ratio (read-out not given) [3]: 2.5 | ECL signal/blank ratio (read-out not given) [4]: 1.6 | ECL signal/blank ratio (read-out not given) [5]: 2.4 | ECL signal/blank ratio (read-out not given) [6]: 1.3 | ECL signal/blank ratio (read-out not given) [7]: 2.1 | ECL signal/blank ratio (read-out not given) [8]: 1.4 | ECL signal/blank ratio (read-out not given) [9]: 1.4
B1: Fab VH3-23_IGHD2-21*01>3_IGHJ6*01 H100E/S108P/Y113G Y59A & V2-13_IGLJ2*01 (Fab, V domains shown)
VH: EVQLLESGGGLVQPGGSLRLSCAASGFTFSSYAMSWVRQAPGKGLEWVSSISGSGGSTAYADSVKGRFTISRDNSKNTLYLQMNSLRAEDTAVYYCAKEEIVVVIAIPYYYYGYGMDVWGQGTLVTVSS
VL: SSELTQDPAVSVALGQTVRITCQGDSLRSYYASWYQQKPGQAPVLVIYGKNNRPSGIPDRFSGSSSGNTASLTITGAQAEDEADYYCNSRDSSGNHLVVFGGGTKLTVL
notes: Tested as a Fab made in E. coli; also called EPG Y59A

ECL signal [10]: 822 | ECL signal [11]: 35900 | ECL signal [12]: 5020 | ECL signal [13]: 1740 | ECL signal [14]: 70800 | ECL signal [15]: 11300 | ECL signal [16]: 11000 | ECL signal [17]: 117000 | ECL signal [18]: 49200 | ECL signal [19]: 3150 | ECL signal [20]: 94800 | ECL signal [21]: 21100
B2: Fab VH1-46_IGHD2-15*01_IGHJ2*01 & L2_IGKJ1*01 (Fab, V domains shown)
VH: QVQLVQSGAEVKKPGASVKVSCKASGYTFTSYYMHWVRQAPGQGLEWMGIINPSGGSTSYAQKFQGRVTMTRDTSTSTVYMELSSLRSEDTAVYYCAREGYCSGGSCYSYWYFDLWGRGTLVTVSS
VL: not shown
notes: Germline library Fab made in E. coli; VH was cloned into Plasmid A (heavy chain constant region CH1, His6 and Flag tags) and the kappa VL into Plasmid C (kappa CL)
